Reference: US20020042368A1 (IMMUNEX, published 2002)

Tests used:
integrin αvβ3 = biological target: T1, integrin αvβ3 (human, UniProt P06756 31-1048; P05106 27-788); experiment: flow cytometry on HMVEC-d; dis-Fc binding with 5-8 fold excess mAb LM609 (competitor) vs control mAb
T1 construct: whole, on cells; Native integrin on primary human dermal microvascular endothelial cells (HMVEC-d); also called CD51/61
Description: (§1) Prior to performing binding studies, HMVEC-d were removed from culture vessels using trypsin-EDTA. The cells were washed in media containing serum and resuspended in binding medium which consisted of PBS containing 1 mM Ca2+, 1 mM Mg2+ and 0.5 mM Mn2+, 0.1% sodium azide, 10% Normal goat serum, 2% rabbit serum and 2% fetal bovine serum.
(§2) One hundred microliters of cell suspension, containing 200,000 to 500,000 HMVEC-d, were added to 12×75 mm plastic test tubes. Monoclonal antibodies specific for one of the integrins, or a control monoclonal antibody (CD29 or M15), were added to the cell suspensions at a concentration of 100 μg/ml (5-8 fold mass excess) 15 minutes prior to addition of disintegrin-Fc fusion proteins. ADAM disintegrin-Fc polypeptides and control Fc fusion polypeptides (P7.5II.Fc) were added, at various concentrations from 12.5 to 20 μg/ml, to the cell suspensions and incubated for 1 hour at 30° C. Unbound Fc polypeptides were washed away by centrifugation of cells in 2 mls of binding media. The washed cell pellets were resuspended in binding medium and then incubated at 30° C. for 30 minutes with goat anti-human Fc-specific biotinylated antibody at a concentration of 2.5 μg/ml for 30 minutes. After centrifugation and washing of the cell pellets, the cells were resuspended in binding medium and bound anti-human Fc-biotin was detected by adding streptavidin-phycoerythrin conjugate to the cell suspension at a 1:1000 dilution (1 μg/ml) and incubating at 30° C. for 30 minutes. The unbound streptavidin-phycoerythrin was washed away and the cells were resuspended in binding medium containing propidum iodide. The level of fluorescent binding (disintegrin-Fc binding) was determined by flow cytometry.
(§3) The level of binding of each ADAM disintegrin-Fc polypeptide was determined in the presence of anti-integrin specific mAb and in the presence of control mAb. Both the intensity of binding (MFI) and the percentage of cells binding were determined. Percent inhibition was calculated using the formula [1-(MFI control-MFI integrin mAb)/MFI control.

integrin α5β1 = biological target: T2, integrin α5β1 (human, UniProt P08648 42-1049; P05556 21-798); experiment: flow cytometry on HMVEC-d; dis-Fc binding with 5-8 fold excess mAb SAM-1 (competitor) vs control mAb
T2 construct: whole, on cells; Native integrin on HMVEC-d; also called CD49e
Description: as §1, §2, §3

percent inhibition of binding (integrin αvβ3)	percent inhibition of binding (integrin α5β1)	Binder
–	54%	ADAM-21dis-Fc (Fc fusion, also called ADAM-21 disintegrin-Fc polypeptide) TSCGNGVVEREEQCDCGSVQQCEQDACCLLNCTLRPGAACAFGLCCKDCKFMPSGELCRQEVNECDLPEWCNGTSHQCPEDRYVQDGIPCSDSAYCYQKRCNNHDQHCREIFGKDAKSASQNCYKEINSQGNRFGHCGINGTTYLKCHISDVFCGRVQCENVRDIPLLQDHFTLQHTHINGVTCWGIDYHLRMNISDIGEVKDGTVCGPGKICIHKKCVSLSVLSHVCLPETCNMKGICNNKHHCHCGYGWSPPYCQHRGYGGSIDSGPASAKRSCDKTHTCPPCPAPEAEGAPSVFLFPPKPKDTLMISRTPEVTCVVVDVSHEDPEVKFNWYVDGVEVHNAKTKPREEQYNSTYRVVSVLTVLHQDWLNGKEYKCKVSNKALPAPIEKTISKAKGQPREPQVYTLPPSRDELTKNQVSLTCLVKGFYPSDIAVEWESNGQPENNYKTTPPVLDSDGSFFLYSKLTVDKSRWQQGNVFSCSVMHEALHNHYTQKSLSLSPGK
42%	36%	ADAM-22dis-Fc (Fc fusion, also called ADAM-22 disintegrin-Fc polypeptide) TSCGNGFIETGEECDCGTPAECVLEGAECCKKCTLTQDSQCSDGLCCKKCKFQPMGTVCREAVNDCDIRETCSGNSSQCAPNIHKMDGYSCDGVQGICFGGRCKTRDRQCKYIWGQKVTASDKYCYEKLNIEGTEKGNCGKDKDTWIQCNKRDVLCGYLLCTNIGNIPRLGELDGEITSTLVVQQGRTLNCSGGHVKLEEDVDLGYVEDGTPCGPQMMCLEHRCLPVASFNFSTCLSSKEGTICSGNGVCSNELKCVCNRHWIGSDCNTYFPHNDDAKTGITLSGNGVAGTNGSCDKTHTCPPCPAPEAEGAPSVFLFPPKPKDTLMISRTPEVTCVVVDVSHEDPEVKFNWYVDGVEVHNAKTKPREEQYNSTYRVVSVLTVLHQDWLNGKEYKCKVSNKALPAPIEKTISKAKGQPREPQVYTLPPSRDELTKNQVSLTCLVKGFYPSDIAVEWESNGQPENNYKTTPPVLDSDGSFFLYSKLTVDKSRWQQGNVFSCSVMHEALHNHYTQKSLSLSPGK
60%	30%	ADAM-15dis-Fc (Fc fusion, also called ADAM-15 disintegrin-Fc polypeptide) TSCGNMFVEPGEQCDCGFLDDCVDPCCDSLTCQLRPGAQCASDGPCCQNCQLRPSGWQCRPTRGDCDLPEFCPGDSSQCPPDVSLGDGEPCAGGQAVCMHGRCASYAQQCQSLWGPGAQPAAPLCLQTANTRGNAFGSCGRNPSGSYVSCTPRDAICGQLQCQTGRTQPLLGSIRDLLWETIDVNGTELNCSWVHLDLGSDVAQPLLTLPGTACGPGLVCIDHRCQRVDLLGAQECRSKCHGHGVCDSNRHCYCEEGWAPPDCTTQLKATSSRSCDKTHTCPPCPAPEAEGAPSVFLFPPKPKDTLMISRTPEVTCVVVDVSHEDPEVKFNWYVDGVEVHNAKTKPREEQYNSTYRVVSVLTVLHQDWLNGKEYKCKVSNKALPAPIEKTISKAKGQPREPQVYTLPPSREEMTKNQVSLTCLVKGFYPSDIAVEWESNGQPENNYKTTPPVLDSDGSFFLYSKLTVDKSRWQQGNVFSCSVMHEALHNHYTQKSLSLSPGK

Continued, binder first:

Binder	percent inhibition of binding (integrin αvβ3)	percent inhibition of binding (integrin α5β1)
ADAM-17dis-Fc (Fc fusion, also called ADAM-17 disintegrin-Fc polypeptide) TSCGNSRVDEGEECDPGIMYLNNDTCCNSDCTLKEGVQCSDRNSPCCKNCQFETAQKKCQEAINATCKGVSYCTGNSSECPPPGNAEDDTVCLDLGKCKDGKCIPFCEREQQLESCACNETDNSCKVCCRDLSGRCVPYVDAEQKNLFLRKGKPCTVGFCDMNGKCEKRVQDVIERFWDFIDQLSINTFGKFLADNRSCDKTHTCPPCPAPEAEGAPSVFLFPPKPKDTLMISRTPEVTCVVVDVSHEDPEVKFNWYVDGVEVHNAKTKPREEQYNSTYRVVSVLTVLHQDWLNGKEYKCKVSNKALPAPIEKTISKAKGQPREPQVYTLPPSRDELTKNQVSLTCLVKGFYPSDIAVEWESNGQPENNYKTTPPVLDSDGSFFLYSKLTVDKSRWQQGNVFSCSVMHEALHNHYTQKSLSLSPGK	50%	–
ADAM-20dis-Fc (Fc fusion, also called ADAM-20 disintegrin-Fc polypeptide) TSCGNLVVEEGEECDCGTIRQCAKDPCCLLNCTLHPGAACAFGICCKDCKFLPSGTLCRQQVGECDLPEWCNGTSHQCPDDVYVQDGISCNVNAFCYEKTCNNHDIQCKEIFGQDARSASQSCYQEINTQGNRFGHCGIVGTTYVKCWTPDIMCGRVQCENVGVIPNLIEHSTVQQFHLNDTTCWGTDYHLGMAIPDIGEVKDGTVCGPEKICIRKKCASMVHLSQACQPKTCNMRGICNNKQHCHCNHEWAPPYCKDKGYGGSADSGPPPKNNMEGLNVMGKLRGSCDKTHTCPPCPAPEAEGAPSVFLFPPKPKDTLMISRTPEVTCVVVDVSHEDPEVKFNWYVDGVEVHNAKTKPREEQYNSTYRVVSVLTVLHQDWLNGKEYKCKVSNKALPAPIEKTISKAKGQPREPQVYTLPPSRDELTKNQVSLTCLVKGFYPSDIAVEWESNGQPENNYKTTPPVLDSDGSFFLYSKLTVDKSRWQQGNVFSCSVMHEALHNHYTQKSLSLSPGK	58%	–
ADAM-23dis-Fc (Fc fusion, also called ADAM-23 disintegrin-Fc polypeptide) TSCGNGYVEAGEECDCGFHVECYGLCCKKCSLSNGAHCSDGPCCNNTSCLFQPRGYECRDAVNECDITEYCTGDSGQCPPNLHKQDGYACNQNQGRCYNGECKARDNQCQYIWGTKAAGSDKFCYEKLNTEGTEKGNCGKDGDRWIQCSKHDVFCGFLLCTNLTRAPRIGQLQGEIIPTSFYHQGRVIDCSGAHVVLDDDTDVGYVEDGTPCGPSMMCLDRKCLQIQALNMSSCPLDSKGKVCSGHGVCSNEATCICDFTWAGTDCSIRDPVRNLHPPKDEGPKGPSATNRSCDKTHTCPPCPAPEAEGAPSVFLFPPKPKDTLMISRTPEVTCVVVDVSHEDPEVKFNWYVDGVEVHNAKTKPREEQYNSTYRVVSVLTVLHQDWLNGKEYKCKVSNKALPAPIEKTISKAKGQPREPQVYTLPPSRDELTKNQVSLTCLVKGFYPSDIAVEWESNGQPENNYKTTPPVLDSDGSFFLYSKLTVDKSRWQQGNVFSCSVMHEALHNHYTQKSLSLSPGK	–	49%
